Test results reported in patent US20230242634A1.

Molecular target: human TNF-α (human) (UniProt P01375)
Experiment: cell-based or functional assay

Sequence of UniProt P01375 (P01375 77-233 limits assumed): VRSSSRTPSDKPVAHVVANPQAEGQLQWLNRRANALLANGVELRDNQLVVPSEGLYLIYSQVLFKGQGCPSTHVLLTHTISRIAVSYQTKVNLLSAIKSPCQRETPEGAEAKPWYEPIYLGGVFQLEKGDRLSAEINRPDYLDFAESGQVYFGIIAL

Substance: TA001 (the original Adalimumab) (antibody)
- IC50 (M), TNF-α-mediated killing of L929 cells (CCK-8): 1.48e-08 M
